Laboratory results as given in PMC12680543.

How the values were obtained:
[1] = molecular target: KSS-1::Strep (C. tropicalis); test: SEC-MALS; KSS-1::Strep–SKR-1 complex co-expressed in Sf9 and co-purified (StrepTrapXT ATP/Mg wash fraction, ResourceQ, Superdex 200 Increase 10/300 GL); 20 mM Tris pH 7.5, 150 mM NaCl; right-angle static light scattering

Row | stoichiometry N [1] | Substance | half-life of KLMT-1::mNG (fluorescence time lapse of embryos) in kss-1(−) against kss-1(+) (KLMT-1 (C. tropicalis)) [fold]
1 |  | 3xFLAG::KSS-1 (natural protein) | 2.9
2 | 1 | SKR-1 (natural protein) | 
